How the values were obtained:
Experiment in all cases: cleavage_in_vitro
[1] = system: T1, LPG10139 (Bacillus megaterium); conditions: PAM NNNNC
T1 sequence: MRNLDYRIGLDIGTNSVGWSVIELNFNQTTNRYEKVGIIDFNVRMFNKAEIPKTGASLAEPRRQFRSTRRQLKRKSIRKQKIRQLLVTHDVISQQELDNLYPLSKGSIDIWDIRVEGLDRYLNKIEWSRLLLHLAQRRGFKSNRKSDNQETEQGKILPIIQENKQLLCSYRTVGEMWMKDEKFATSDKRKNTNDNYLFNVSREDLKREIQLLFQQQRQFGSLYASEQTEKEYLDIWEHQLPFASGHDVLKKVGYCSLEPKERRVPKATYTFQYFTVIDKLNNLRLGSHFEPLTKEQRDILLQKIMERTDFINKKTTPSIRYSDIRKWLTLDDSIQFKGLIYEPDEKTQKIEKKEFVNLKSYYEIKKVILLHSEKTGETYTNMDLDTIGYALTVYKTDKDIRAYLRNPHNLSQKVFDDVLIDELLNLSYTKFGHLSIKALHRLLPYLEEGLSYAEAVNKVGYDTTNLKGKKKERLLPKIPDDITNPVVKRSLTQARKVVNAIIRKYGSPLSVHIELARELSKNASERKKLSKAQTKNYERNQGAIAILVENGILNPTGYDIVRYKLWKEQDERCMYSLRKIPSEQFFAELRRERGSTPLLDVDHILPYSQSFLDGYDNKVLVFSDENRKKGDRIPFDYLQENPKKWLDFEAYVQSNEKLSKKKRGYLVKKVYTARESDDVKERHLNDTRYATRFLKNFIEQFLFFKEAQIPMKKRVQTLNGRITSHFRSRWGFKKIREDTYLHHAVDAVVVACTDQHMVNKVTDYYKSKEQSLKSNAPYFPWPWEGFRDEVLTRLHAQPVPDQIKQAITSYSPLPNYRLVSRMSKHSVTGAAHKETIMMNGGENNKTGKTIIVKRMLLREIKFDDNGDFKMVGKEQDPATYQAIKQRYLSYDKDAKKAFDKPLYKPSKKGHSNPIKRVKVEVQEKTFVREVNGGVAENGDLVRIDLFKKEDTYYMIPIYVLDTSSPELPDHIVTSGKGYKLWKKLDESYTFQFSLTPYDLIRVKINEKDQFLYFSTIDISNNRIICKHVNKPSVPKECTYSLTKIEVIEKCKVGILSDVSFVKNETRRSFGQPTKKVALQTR

LPG10145 (undetermined) = system: T2, LPG10145 (undetermined); conditions: PAM NNGG; 37C 120 min
T2 sequence: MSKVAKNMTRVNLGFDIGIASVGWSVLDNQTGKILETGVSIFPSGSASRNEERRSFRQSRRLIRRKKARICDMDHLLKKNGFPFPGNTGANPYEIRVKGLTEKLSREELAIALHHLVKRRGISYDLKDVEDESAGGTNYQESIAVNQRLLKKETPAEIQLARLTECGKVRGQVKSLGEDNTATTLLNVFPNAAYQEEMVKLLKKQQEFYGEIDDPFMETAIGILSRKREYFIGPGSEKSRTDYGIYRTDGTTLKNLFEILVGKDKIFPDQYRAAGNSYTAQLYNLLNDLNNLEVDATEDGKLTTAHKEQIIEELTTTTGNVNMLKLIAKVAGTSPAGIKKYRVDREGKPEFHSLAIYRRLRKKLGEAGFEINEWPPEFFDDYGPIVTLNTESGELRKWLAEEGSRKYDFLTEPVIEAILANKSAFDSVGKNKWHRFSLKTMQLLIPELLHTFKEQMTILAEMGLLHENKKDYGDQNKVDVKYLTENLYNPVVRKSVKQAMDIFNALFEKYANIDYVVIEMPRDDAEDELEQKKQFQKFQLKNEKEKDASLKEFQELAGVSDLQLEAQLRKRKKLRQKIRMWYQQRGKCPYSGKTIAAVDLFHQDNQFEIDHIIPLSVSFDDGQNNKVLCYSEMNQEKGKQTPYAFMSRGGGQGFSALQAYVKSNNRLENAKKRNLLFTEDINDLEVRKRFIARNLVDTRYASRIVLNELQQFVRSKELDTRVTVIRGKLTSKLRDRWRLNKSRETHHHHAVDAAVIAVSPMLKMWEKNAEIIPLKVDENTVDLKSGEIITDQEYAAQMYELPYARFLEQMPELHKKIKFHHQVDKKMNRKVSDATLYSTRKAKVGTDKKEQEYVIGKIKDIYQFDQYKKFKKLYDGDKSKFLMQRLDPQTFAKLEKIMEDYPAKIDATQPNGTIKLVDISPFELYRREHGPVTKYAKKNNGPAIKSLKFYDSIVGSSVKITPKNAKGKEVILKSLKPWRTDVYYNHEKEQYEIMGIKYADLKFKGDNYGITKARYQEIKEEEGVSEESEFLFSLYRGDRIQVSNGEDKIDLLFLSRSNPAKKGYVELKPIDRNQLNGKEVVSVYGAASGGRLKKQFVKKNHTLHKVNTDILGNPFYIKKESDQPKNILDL

LPG10150 (undetermined) = system: T3, LPG10150 (undetermined); conditions: PAM SEQ ID 81
T3 sequence: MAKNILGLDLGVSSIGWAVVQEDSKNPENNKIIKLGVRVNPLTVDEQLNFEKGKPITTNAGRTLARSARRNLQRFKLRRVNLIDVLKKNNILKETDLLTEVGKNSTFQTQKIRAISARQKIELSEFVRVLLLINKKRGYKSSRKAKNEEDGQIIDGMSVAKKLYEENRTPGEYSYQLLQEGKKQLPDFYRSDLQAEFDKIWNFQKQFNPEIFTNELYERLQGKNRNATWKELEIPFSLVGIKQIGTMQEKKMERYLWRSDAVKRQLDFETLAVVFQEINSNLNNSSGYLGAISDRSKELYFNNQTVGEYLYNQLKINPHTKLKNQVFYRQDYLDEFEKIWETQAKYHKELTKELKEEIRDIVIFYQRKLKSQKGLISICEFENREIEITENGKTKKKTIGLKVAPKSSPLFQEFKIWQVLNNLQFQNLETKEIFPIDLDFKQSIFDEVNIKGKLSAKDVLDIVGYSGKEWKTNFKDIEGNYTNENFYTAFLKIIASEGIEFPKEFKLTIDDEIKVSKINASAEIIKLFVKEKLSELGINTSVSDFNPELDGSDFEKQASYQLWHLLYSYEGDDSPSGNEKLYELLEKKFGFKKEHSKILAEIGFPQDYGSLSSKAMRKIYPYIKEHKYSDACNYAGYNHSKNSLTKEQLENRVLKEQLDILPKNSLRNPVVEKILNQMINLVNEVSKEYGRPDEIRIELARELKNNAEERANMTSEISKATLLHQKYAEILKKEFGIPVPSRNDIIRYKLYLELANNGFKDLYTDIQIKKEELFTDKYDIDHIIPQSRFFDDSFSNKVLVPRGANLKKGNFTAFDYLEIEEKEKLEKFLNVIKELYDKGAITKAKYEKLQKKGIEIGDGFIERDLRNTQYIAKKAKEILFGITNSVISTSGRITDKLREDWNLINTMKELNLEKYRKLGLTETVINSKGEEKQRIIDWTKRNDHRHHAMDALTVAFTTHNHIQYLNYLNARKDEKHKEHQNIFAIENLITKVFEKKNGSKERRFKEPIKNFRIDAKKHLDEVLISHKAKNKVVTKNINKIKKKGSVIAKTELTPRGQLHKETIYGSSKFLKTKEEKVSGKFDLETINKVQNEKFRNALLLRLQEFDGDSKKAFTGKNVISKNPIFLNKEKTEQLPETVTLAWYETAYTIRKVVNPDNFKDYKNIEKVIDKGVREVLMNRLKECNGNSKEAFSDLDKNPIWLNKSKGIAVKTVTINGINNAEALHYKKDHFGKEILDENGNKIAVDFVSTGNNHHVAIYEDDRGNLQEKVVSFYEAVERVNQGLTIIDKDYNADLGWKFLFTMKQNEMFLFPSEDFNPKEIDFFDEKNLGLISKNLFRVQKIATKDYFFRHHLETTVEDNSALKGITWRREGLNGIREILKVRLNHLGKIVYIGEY

| Sequence | activity (% target strand cleaved) [1] | activity (% target strand cleaved) (LPG10145 (undetermined)) | activity (% target strand cleaved) (LPG10150 (undetermined)) |
| --- | --- | --- | --- |
| GUCAUAGUCCCAUCAUAUCCAUUGAAAGCAAUGGAUAUGAUGUUUCUAUGAUAAGGGCUCUCUAAGAGAGACCUGUGGCGUUGGGGAUCGCCUGCCCGUUUCGACGGGUGUCUCCCCAUUU / GATATAGACGTTGTGGCTGTTGTAGTAGGACCTC / GAGGTCCTACTACAACAGCCACAACGTCTATATC [LPG10139 sgRNA L2 ; Library 2 target AGGACCTC] | 7.3 |  |  |
| GUCAUAGUCCCAUCAUAUCCAUUGAAAGCAAUGGAUAUGAUGUUUCUAUGAUAAGGGCUCUCUAAGAGAGACCUGUGGCGUUGGGGAUCGCCUGCCCGUUUCGACGGGUGUCUCCCCAUUU / GGACAGCAGCTTCCTATATCTCGTACAGGACCTC / GAGGTCCTGTACGAGATATAGGAAGCTGCTGTCC [LPG10139 sgRNA L1 ; Library 1 target AGGACCTC] | 4.4 |  |  |
| GUUAUUGUACUCUCAAGGAAUCAGAAAGACUGAUUCCUUGAGAAUCUACAAUAAUAAGGCUUUAUGCCGAAAUUCCCACUCUUAACGGAGUGGGUUUU / GATATAGACGTTGTGGCTGTTGTAGTACGGATTC / GAATCCGTACTACAACAGCCACAACGTCTATATC [LPG10145 sgRNA L2 ; Library 2 target ACGGATTC] |  | 100 |  |
| GUUAUUGUACUCUCAAGGAAUCAGAAAGACUGAUUCCUUGAGAAUCUACAAUAAUAAGGCUUUAUGCCGAAAUUCCCACUCUUAACGGAGUGGGUUUU / GGACAGCAGCTTCCTATATCTCGTACACGGATTC / GAATCCGTGTACGAGATATAGGAAGCTGCTGTCC [LPG10145 sgRNA L1 ; Library 1 target ACGGATTC] |  | 92.9 |  |
| GUUGUGAAUUGCUUUAAAGAAAGCAAUUCACAAUAAGGAUUAUUCCGUUGUGAAAACAUCUAGCGCCUCGUCUAUCUACGGGGCAUUUU / GATATAGACGTTGTGGCTGTTGTAGTAGGACTTC / GAAGTCCTACTACAACAGCCACAACGTCTATATC [LPG10150 sgRNA L2 ; Library 2 target AGGACTTC] |  |  | 31.8 |
| GUUGUGAAUUGCUUUAAAGAAAGCAAUUCACAAUAAGGAUUAUUCCGUUGUGAAAACAUCUAGCGCCUCGUCUAUCUACGGGGCAUUUU / GGACAGCAGCTTCCTATATCTCGTACAGGACCTC / GAGGTCCTGTACGAGATATAGGAAGCTGCTGTCC [LPG10150 sgRNA L1 ; Library 1 target AGGACCTC] |  |  | 1.4 |
